# Experimental data reported in patent US20190338009A1 (ZEALAND PHARMA A S, published 2019).
# Square brackets hold non-standard residues; d marks the D form. Aib = CC(C)(N)C(=O)O
# B1: Compound 10 (peptide)
# peptide: H-H[Aib]EGTFTSELSTILDEQAARDFIAWLIAHKITD-OH
# SMILES: CC[C@H](C)[C@H](NC(=O)[C@H](CC(C)C)NC(=O)[C@H](Cc1c[nH]c2ccccc12)NC(=O)[C@H](C)NC(=O)[C@@H](NC(=O)[C@H](Cc1ccccc1)NC(=O)[C@H](CC(=O)O)NC(=O)[C@H](CCCNC(=N)N)NC(=O)[C@H](C)NC(=O)[C@H](C)NC(=O)[C@H](CCC(N)=O)NC(=O)[C@H](CCC(=O)O)NC(=O)[C@H](CC(=O)O)NC(=O)[C@H](CC(C)C)NC(=O)[C@@H](NC(=O)[C@@H](NC(=O)[C@H](CO)NC(=O)[C@H](CC(C)C)NC(=O)[C@H](CCC(=O)O)NC(=O)[C@H](CO)NC(=O)[C@@H](NC(=O)[C@H](Cc1ccccc1)NC(=O)[C@@H](NC(=O)CNC(=O)[C@H](CCC(=O)O)NC(=O)C(C)(C)NC(=O)[C@@H](N)Cc1c[nH]cn1)[C@@H](C)O)[C@@H](C)O)[C@@H](C)O)[C@@H](C)CC)[C@@H](C)CC)C(=O)N[C@@H](C)C(=O)N[C@@H](Cc1c[nH]cn1)C(=O)N[C@@H](CCCCN)C(=O)N[C@H](C(=O)N[C@H](C(=O)N[C@@H](CC(=O)O)C(=O)O)[C@@H](C)O)[C@@H](C)CC
# B2: Compound 11 (peptide)
# peptide: H-H[Aib]EGTFTSELATILDGKAARDFIAWLIAHKITD-OH
# SMILES: CC[C@H](C)[C@H](NC(=O)[C@H](CC(C)C)NC(=O)[C@H](Cc1c[nH]c2ccccc12)NC(=O)[C@H](C)NC(=O)[C@@H](NC(=O)[C@H](Cc1ccccc1)NC(=O)[C@H](CC(=O)O)NC(=O)[C@H](CCCNC(=N)N)NC(=O)[C@H](C)NC(=O)[C@H](C)NC(=O)[C@H](CCCCN)NC(=O)CNC(=O)[C@H](CC(=O)O)NC(=O)[C@H](CC(C)C)NC(=O)[C@@H](NC(=O)[C@@H](NC(=O)[C@H](C)NC(=O)[C@H](CC(C)C)NC(=O)[C@H](CCC(=O)O)NC(=O)[C@H](CO)NC(=O)[C@@H](NC(=O)[C@H](Cc1ccccc1)NC(=O)[C@@H](NC(=O)CNC(=O)[C@H](CCC(=O)O)NC(=O)C(C)(C)NC(=O)[C@@H](N)Cc1c[nH]cn1)[C@@H](C)O)[C@@H](C)O)[C@@H](C)O)[C@@H](C)CC)[C@@H](C)CC)C(=O)N[C@@H](C)C(=O)N[C@@H](Cc1c[nH]cn1)C(=O)N[C@@H](CCCCN)C(=O)N[C@H](C(=O)N[C@H](C(=O)N[C@@H](CC(=O)O)C(=O)O)[C@@H](C)O)[C@@H](C)CC
# B3: Compound 12 (peptide)
# peptide: H-H[Aib]EGTFTSELATILDEQAARDFIAWLHAHKITD-OH
# SMILES: CC[C@H](C)[C@H](NC(=O)[C@H](Cc1ccccc1)NC(=O)[C@H](CC(=O)O)NC(=O)[C@H](CCCNC(=N)N)NC(=O)[C@H](C)NC(=O)[C@H](C)NC(=O)[C@H](CCC(N)=O)NC(=O)[C@H](CCC(=O)O)NC(=O)[C@H](CC(=O)O)NC(=O)[C@H](CC(C)C)NC(=O)[C@@H](NC(=O)[C@@H](NC(=O)[C@H](C)NC(=O)[C@H](CC(C)C)NC(=O)[C@H](CCC(=O)O)NC(=O)[C@H](CO)NC(=O)[C@@H](NC(=O)[C@H](Cc1ccccc1)NC(=O)[C@@H](NC(=O)CNC(=O)[C@H](CCC(=O)O)NC(=O)C(C)(C)NC(=O)[C@@H](N)Cc1c[nH]cn1)[C@@H](C)O)[C@@H](C)O)[C@@H](C)O)[C@@H](C)CC)C(=O)N[C@@H](C)C(=O)N[C@@H](Cc1c[nH]c2ccccc12)C(=O)N[C@@H](CC(C)C)C(=O)N[C@@H](Cc1c[nH]cn1)C(=O)N[C@@H](C)C(=O)N[C@@H](Cc1c[nH]cn1)C(=O)N[C@@H](CCCCN)C(=O)N[C@H](C(=O)N[C@H](C(=O)N[C@@H](CC(=O)O)C(=O)O)[C@@H](C)O)[C@@H](C)CC
# B4: Compound 13 (peptide)
# peptide: H-H[Aib]EGTFTSELATILDEQAARDFIAWLQAHKITD-OH
# SMILES: CC[C@H](C)[C@H](NC(=O)[C@H](Cc1ccccc1)NC(=O)[C@H](CC(=O)O)NC(=O)[C@H](CCCNC(=N)N)NC(=O)[C@H](C)NC(=O)[C@H](C)NC(=O)[C@H](CCC(N)=O)NC(=O)[C@H](CCC(=O)O)NC(=O)[C@H](CC(=O)O)NC(=O)[C@H](CC(C)C)NC(=O)[C@@H](NC(=O)[C@@H](NC(=O)[C@H](C)NC(=O)[C@H](CC(C)C)NC(=O)[C@H](CCC(=O)O)NC(=O)[C@H](CO)NC(=O)[C@@H](NC(=O)[C@H](Cc1ccccc1)NC(=O)[C@@H](NC(=O)CNC(=O)[C@H](CCC(=O)O)NC(=O)C(C)(C)NC(=O)[C@@H](N)Cc1c[nH]cn1)[C@@H](C)O)[C@@H](C)O)[C@@H](C)O)[C@@H](C)CC)C(=O)N[C@@H](C)C(=O)N[C@@H](Cc1c[nH]c2ccccc12)C(=O)N[C@@H](CC(C)C)C(=O)N[C@@H](CCC(N)=O)C(=O)N[C@@H](C)C(=O)N[C@@H](Cc1c[nH]cn1)C(=O)N[C@@H](CCCCN)C(=O)N[C@H](C(=O)N[C@H](C(=O)N[C@@H](CC(=O)O)C(=O)O)[C@@H](C)O)[C@@H](C)CC
# B5: Compound 14 (peptide)
# peptide: H-H[Aib]EGTFTSELATILDEQAARDFIAWLYAHKITD-OH
# SMILES: CC[C@H](C)[C@H](NC(=O)[C@H](Cc1ccccc1)NC(=O)[C@H](CC(=O)O)NC(=O)[C@H](CCCNC(=N)N)NC(=O)[C@H](C)NC(=O)[C@H](C)NC(=O)[C@H](CCC(N)=O)NC(=O)[C@H](CCC(=O)O)NC(=O)[C@H](CC(=O)O)NC(=O)[C@H](CC(C)C)NC(=O)[C@@H](NC(=O)[C@@H](NC(=O)[C@H](C)NC(=O)[C@H](CC(C)C)NC(=O)[C@H](CCC(=O)O)NC(=O)[C@H](CO)NC(=O)[C@@H](NC(=O)[C@H](Cc1ccccc1)NC(=O)[C@@H](NC(=O)CNC(=O)[C@H](CCC(=O)O)NC(=O)C(C)(C)NC(=O)[C@@H](N)Cc1c[nH]cn1)[C@@H](C)O)[C@@H](C)O)[C@@H](C)O)[C@@H](C)CC)C(=O)N[C@@H](C)C(=O)N[C@@H](Cc1c[nH]c2ccccc12)C(=O)N[C@@H](CC(C)C)C(=O)N[C@@H](Cc1ccc(O)cc1)C(=O)N[C@@H](C)C(=O)N[C@@H](Cc1c[nH]cn1)C(=O)N[C@@H](CCCCN)C(=O)N[C@H](C(=O)N[C@H](C(=O)N[C@@H](CC(=O)O)C(=O)O)[C@@H](C)O)[C@@H](C)CC
# B6: Compound 15 (peptide)
# peptide: H-H[Aib]EGTFTSELATILDEQAARDFIAWLIQHKITD-OH
# SMILES: CC[C@H](C)[C@H](NC(=O)[C@H](Cc1ccccc1)NC(=O)[C@H](CC(=O)O)NC(=O)[C@H](CCCNC(=N)N)NC(=O)[C@H](C)NC(=O)[C@H](C)NC(=O)[C@H](CCC(N)=O)NC(=O)[C@H](CCC(=O)O)NC(=O)[C@H](CC(=O)O)NC(=O)[C@H](CC(C)C)NC(=O)[C@@H](NC(=O)[C@@H](NC(=O)[C@H](C)NC(=O)[C@H](CC(C)C)NC(=O)[C@H](CCC(=O)O)NC(=O)[C@H](CO)NC(=O)[C@@H](NC(=O)[C@H](Cc1ccccc1)NC(=O)[C@@H](NC(=O)CNC(=O)[C@H](CCC(=O)O)NC(=O)C(C)(C)NC(=O)[C@@H](N)Cc1c[nH]cn1)[C@@H](C)O)[C@@H](C)O)[C@@H](C)O)[C@@H](C)CC)C(=O)N[C@@H](C)C(=O)N[C@@H](Cc1c[nH]c2ccccc12)C(=O)N[C@@H](CC(C)C)C(=O)N[C@H](C(=O)N[C@@H](CCC(N)=O)C(=O)N[C@@H](Cc1c[nH]cn1)C(=O)N[C@@H](CCCCN)C(=O)N[C@H](C(=O)N[C@H](C(=O)N[C@@H](CC(=O)O)C(=O)O)[C@@H](C)O)[C@@H](C)CC)[C@@H](C)CC
# B7: Compound 16 (peptide)
# peptide: H-H[Aib]EGTFTSELATILDEQAARDFIAWLIKHKITD-OH
# SMILES: CC[C@H](C)[C@H](NC(=O)[C@H](Cc1ccccc1)NC(=O)[C@H](CC(=O)O)NC(=O)[C@H](CCCNC(=N)N)NC(=O)[C@H](C)NC(=O)[C@H](C)NC(=O)[C@H](CCC(N)=O)NC(=O)[C@H](CCC(=O)O)NC(=O)[C@H](CC(=O)O)NC(=O)[C@H](CC(C)C)NC(=O)[C@@H](NC(=O)[C@@H](NC(=O)[C@H](C)NC(=O)[C@H](CC(C)C)NC(=O)[C@H](CCC(=O)O)NC(=O)[C@H](CO)NC(=O)[C@@H](NC(=O)[C@H](Cc1ccccc1)NC(=O)[C@@H](NC(=O)CNC(=O)[C@H](CCC(=O)O)NC(=O)C(C)(C)NC(=O)[C@@H](N)Cc1c[nH]cn1)[C@@H](C)O)[C@@H](C)O)[C@@H](C)O)[C@@H](C)CC)C(=O)N[C@@H](C)C(=O)N[C@@H](Cc1c[nH]c2ccccc12)C(=O)N[C@@H](CC(C)C)C(=O)N[C@H](C(=O)N[C@@H](CCCCN)C(=O)N[C@@H](Cc1c[nH]cn1)C(=O)N[C@@H](CCCCN)C(=O)N[C@H](C(=O)N[C@H](C(=O)N[C@@H](CC(=O)O)C(=O)O)[C@@H](C)O)[C@@H](C)CC)[C@@H](C)CC
# Target: human glucagon-like peptide 1 receptor (GLP-1R) (human, UniProt P43220 24-463)
# Assay: cell-based or functional assay
row,Binder,"EC50 GLP-1 (nM); cAMP AlphaScreen, HEK293 cells expressing human GLP-1R [nM]"
1,B1,0.005
2,B2,0.011
3,B3,0.055
4,B4,0.016
5,B5,0.021
6,B6,0.005
7,B7,0.006

# Target: T1, human GLP-2 receptor (hGLP2-R) (human, UniProt O95838 1-553)
# T1 sequence (looked up): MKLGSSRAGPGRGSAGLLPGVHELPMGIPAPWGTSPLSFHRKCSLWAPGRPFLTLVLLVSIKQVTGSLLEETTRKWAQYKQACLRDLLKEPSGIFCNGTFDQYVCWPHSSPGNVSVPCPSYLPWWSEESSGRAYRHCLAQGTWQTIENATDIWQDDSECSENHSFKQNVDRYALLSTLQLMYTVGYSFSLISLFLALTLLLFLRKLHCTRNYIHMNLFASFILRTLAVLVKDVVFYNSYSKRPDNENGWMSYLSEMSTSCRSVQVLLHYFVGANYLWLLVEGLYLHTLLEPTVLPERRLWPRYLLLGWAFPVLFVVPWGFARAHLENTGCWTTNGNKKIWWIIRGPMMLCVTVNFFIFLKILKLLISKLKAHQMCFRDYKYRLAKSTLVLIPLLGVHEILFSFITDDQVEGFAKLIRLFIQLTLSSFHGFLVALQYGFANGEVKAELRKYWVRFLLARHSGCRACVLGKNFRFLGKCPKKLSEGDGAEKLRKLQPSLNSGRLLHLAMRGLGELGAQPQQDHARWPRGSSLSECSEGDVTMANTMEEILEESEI
# Assay: cell-based or functional assay
row,Binder,"EC50 GLP-2 (nM); cAMP AlphaScreen, HEK293 cells expressing human GLP-2R [nM]"
1,B1,0.05
2,B2,0.085
3,B3,0.076
4,B4,0.083
5,B5,0.049
6,B6,0.038
7,B7,0.026
